The values below come from US12553059B2, “Plant serine proteases” (priority 2018, dated 2026).

“Also recorded” adds a separate entry of the source.

Assay [1] has as its system HIV-1 UG37 gp140. The assay is described as follows: ELISA antigen binding of 2G12 (I19R 2G12 precomplexed with anti-Fc). Particulars: 2G12 (I19R variant) cleaved by apoplastic proteases. How it is done:
A slightly modified ELISA procedure was used for the analysis of 2G12 containing an I19R mutation in the heavy chain (I19R 2G12). Wells were coated with 500 ng HIV-1 UG37 gp140 in PBS. […] (Doores K J et al. J Virol 84 (2010):10690-10699) prior to appropriate dilution and addition to the wells. Detection of antigen-bound mAb molecules was performed with 0.1 μg/mL goat anti-human kappa chain peroxidase conjugate (SIGMA-ALDRICH, A7164).
(An ELISA detects its analyte on a solid surface through an enzyme-linked reagent.)

Assay [2] relates to monoclonal antibody 2F5. The assay is described as follows: In vitro degradation assay with purified proteases, substrate 2F5. The assay is classed as biochemical. Particulars: purified protease 10-100 μg/mL, pH 5.5. How it is done: (§1) Leaves of Nicotiana benthamiana […] (Strasser R et al. Plant Biotechnol J 6 (2008):392-402) expressing a subtilisin-like serine protease construct were submerged in extraction buffer (50 mM sodium phosphate/200 mM KCl, pH 7.0) prior to vacuum exposure in a desiccator. Exogenous buffer was removed prior to centrifugation of the leaves for 15 min at 2000 g and 4° C. The recovered solution was then supplemented with 20 mM imidazole and loaded on a 1 mL column of Chelating Sepharose (GE […]) charged with Ni^2+ ions. After washing with the same buffer, the recombinant subtilisin-like serine protease was eluted with 250 mM imidazole in extraction buffer. Protein-containing eluate fractions were pooled, dialysed twice against 2 liters of extraction buffer and then concentrated by ultrafiltration using Microsep Advance centrifugal devices (10K MWCO; PALL CORPORATION).
(§2) After incubation for up to 16 h, reactions were stopped by addition of SDS-PAGE sample buffer.
(§3) For isolation of mAb degradation products, antibodies ([…]) were digested with apoplastic fluid or purified subtilisin-like serine proteases in 500 μL 100 mM sodium acetate (pH 5.5) to completion. After addition of 10 μL settled rProtein A Sepharose 4 Fast Flow beads, the samples were incubated for 2 h at 4° C. under constant agitation. The beads were then collected by centrifugation, washed four times with 500 μL PBS prior to elution of the bound antibody fragments with 100 μL 100 mM glycine (pH 3.0). The eluate was immediately neutralized with 10 μL 1 M Tris/HCl (pH 8.0). This elution/neutralization cycle was repeated four times. […]
(§4) N-terminal sequence analysis of bands blotted on polyvinylidene difluoride membranes (BIO-RAD) was performed by Edman degradation (Niemer M et al. Biotechnol J 9 (2014):493-500). […] Eluted polypeptides were analysed online on a maxis 4G ETD Q-TOF mass spectrometer (BRUKER, Billerica, USA) equipped with an electrospray ionization source and operated in the positive ion mode (m/z range: 400-3800). […]

Assay [3] has as its system I19R 2G12. The assay is described as follows: In vitro degradation assay with purified proteases, substrate I19R 2G12. Particulars: for cleavage sites in I19R 2G12 heavy chain (arrows): N-terminal sequencing and mass spectrometry; for cleavage / degradation of I19R 2G12 by purified protease: purified protease 10-100 μg/mL, pH 5.5. Format: biochemical. How it is done:
as §1, §2
For isolation of mAb degradation products, antibodies ([…]) were digested with apoplastic fluid or purified subtilisin-like serine proteases in 500 μL 100 mM sodium acetate (pH 5.5) to completion. After addition of 10 μL settled rProtein A Sepharose 4 Fast Flow beads, the samples were incubated for 2 h at 4° C. under constant agitation. The beads were then collected by centrifugation, washed four times with 500 μL PBS prior to elution of the bound antibody fragments with 100 μL 100 mM glycine (pH 3.0). The eluate was immediately neutralized with 10 μL 1 M Tris/HCl (pH 8.0). This elution/neutralization cycle was repeated four times. All eluate fractions were combined and concentrated by ultrafiltration after buffer exchange into PBS containing 0.02% (v/v) NaN3.
Samples were fractionated by 12.5% SDS-PAGE under reducing conditions and then blotted on nitrocellulose membranes (GE […]).
as §4, with “(2014):493-500). Alternatively, antibodies or their degradation products were digested with PNGase F (ROCHE) to release their N-glycans, reduced with 10 mM DTE (1 h, 56° C.) and then fractionated on a THERMO PROSWIFT RP-4H column (250×0.20 mm) using a Dionex UltiMate 3000 HPLC system (THERMO […]).” for “(2014):493-500).”

Assay [4] deals with PG9. The assay is described as follows: In vitro degradation assay with purified proteases, substrate PG9. The assay is classed as biochemical. Particulars: for cleavage / degradation of PG9 by purified protease: purified protease 10-100 μg/mL, pH 5.5. How it is done: as §1, §2, §3, §4
Assay [5] deals with SBT1 (SEQ ID No. 2). The assay is described as follows: Kinetic analysis of protease-inhibitor interactions, SBT1. The assay is classed as biochemical, Nicotiana benthamiana. Particulars: recombinant inhibitor from E. coli; substrate Abz-VILDAVRA-Y(NO2). How it is done:
(§5) These assays were performed as described (Hohl M et al., 2017, J. Biol. Chem. 292, 6389-6401). A fluorogenic peptide substrate, Abz-[…]-Y(NO2) (SEQ ID NO: 37), was used for measuring the enzymatic activity of the subtilisin-like serine proteases tested. Recombinant inhibitors (prepared as described in Hohl M et al., 2017, J. Biol. Chem. 292, 6389-6401) were added in serial dilutions. Substrate cleavage was monitored in an Infinite M200 Pro microplate reader as increase in relative fluorescence (λex=320 nm; λem=420 nm). Inhibition constants (Ki) were calculated using the Morrison equation.

Assay [6] addresses SBT2 (SEQ ID No. 14). The experiment in a line: Kinetic analysis of protease-inhibitor interactions, SBT2. The assay is classed as biochemical, Nicotiana benthamiana. Particulars: recombinant inhibitor from E. coli; substrate Abz-VILDAVRA-Y(NO2). How it is done:
as §5

Chain of I19R 2G12 (as listed by the source, stated change not applied): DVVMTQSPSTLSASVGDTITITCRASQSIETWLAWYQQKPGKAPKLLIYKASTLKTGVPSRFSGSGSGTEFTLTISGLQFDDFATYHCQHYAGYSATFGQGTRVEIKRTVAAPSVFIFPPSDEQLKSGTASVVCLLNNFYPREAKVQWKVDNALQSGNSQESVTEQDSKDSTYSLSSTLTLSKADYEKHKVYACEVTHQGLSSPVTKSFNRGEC
Chain of I19R 2G12 (as listed by the source, stated change not applied): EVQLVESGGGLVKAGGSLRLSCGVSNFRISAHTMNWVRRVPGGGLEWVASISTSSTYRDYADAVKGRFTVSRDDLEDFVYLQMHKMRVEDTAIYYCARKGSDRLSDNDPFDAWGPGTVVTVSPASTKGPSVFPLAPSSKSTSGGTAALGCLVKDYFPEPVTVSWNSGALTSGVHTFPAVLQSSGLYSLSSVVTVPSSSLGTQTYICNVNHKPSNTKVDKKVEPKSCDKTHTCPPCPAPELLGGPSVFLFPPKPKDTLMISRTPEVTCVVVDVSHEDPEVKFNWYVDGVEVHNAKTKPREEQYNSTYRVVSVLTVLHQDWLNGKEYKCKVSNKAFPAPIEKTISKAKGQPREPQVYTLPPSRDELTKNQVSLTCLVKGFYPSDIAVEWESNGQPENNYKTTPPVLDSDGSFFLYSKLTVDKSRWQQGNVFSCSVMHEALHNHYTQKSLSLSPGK
Chain of monoclonal antibody 2F5 (as listed by the source): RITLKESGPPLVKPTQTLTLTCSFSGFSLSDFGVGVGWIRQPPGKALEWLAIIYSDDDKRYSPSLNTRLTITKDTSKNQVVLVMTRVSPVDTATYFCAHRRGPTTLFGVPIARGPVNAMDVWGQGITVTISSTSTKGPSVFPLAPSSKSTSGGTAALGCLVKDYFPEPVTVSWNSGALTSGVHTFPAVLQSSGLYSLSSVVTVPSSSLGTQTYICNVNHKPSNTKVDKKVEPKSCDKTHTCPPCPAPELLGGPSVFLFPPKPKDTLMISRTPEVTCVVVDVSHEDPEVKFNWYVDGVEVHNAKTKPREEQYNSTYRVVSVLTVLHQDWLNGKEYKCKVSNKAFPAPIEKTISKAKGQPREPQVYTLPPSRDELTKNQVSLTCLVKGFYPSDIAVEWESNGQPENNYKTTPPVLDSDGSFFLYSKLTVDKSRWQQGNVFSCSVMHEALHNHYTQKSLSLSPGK
Chain of PG9 (as listed by the source): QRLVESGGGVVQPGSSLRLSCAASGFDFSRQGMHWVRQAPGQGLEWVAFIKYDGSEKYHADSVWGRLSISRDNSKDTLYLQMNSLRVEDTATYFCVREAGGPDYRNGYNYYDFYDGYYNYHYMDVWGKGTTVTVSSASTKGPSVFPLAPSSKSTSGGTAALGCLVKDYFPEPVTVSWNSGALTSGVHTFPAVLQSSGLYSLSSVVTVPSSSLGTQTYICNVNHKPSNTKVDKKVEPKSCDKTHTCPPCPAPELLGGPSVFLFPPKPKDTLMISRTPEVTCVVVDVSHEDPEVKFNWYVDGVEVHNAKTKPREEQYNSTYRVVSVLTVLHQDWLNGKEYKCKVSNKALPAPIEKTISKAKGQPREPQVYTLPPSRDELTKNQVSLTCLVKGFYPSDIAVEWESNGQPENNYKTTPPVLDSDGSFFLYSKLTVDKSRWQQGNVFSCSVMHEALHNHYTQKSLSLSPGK
Chain of SBT2 (SEQ ID No. 14) (as listed by the source): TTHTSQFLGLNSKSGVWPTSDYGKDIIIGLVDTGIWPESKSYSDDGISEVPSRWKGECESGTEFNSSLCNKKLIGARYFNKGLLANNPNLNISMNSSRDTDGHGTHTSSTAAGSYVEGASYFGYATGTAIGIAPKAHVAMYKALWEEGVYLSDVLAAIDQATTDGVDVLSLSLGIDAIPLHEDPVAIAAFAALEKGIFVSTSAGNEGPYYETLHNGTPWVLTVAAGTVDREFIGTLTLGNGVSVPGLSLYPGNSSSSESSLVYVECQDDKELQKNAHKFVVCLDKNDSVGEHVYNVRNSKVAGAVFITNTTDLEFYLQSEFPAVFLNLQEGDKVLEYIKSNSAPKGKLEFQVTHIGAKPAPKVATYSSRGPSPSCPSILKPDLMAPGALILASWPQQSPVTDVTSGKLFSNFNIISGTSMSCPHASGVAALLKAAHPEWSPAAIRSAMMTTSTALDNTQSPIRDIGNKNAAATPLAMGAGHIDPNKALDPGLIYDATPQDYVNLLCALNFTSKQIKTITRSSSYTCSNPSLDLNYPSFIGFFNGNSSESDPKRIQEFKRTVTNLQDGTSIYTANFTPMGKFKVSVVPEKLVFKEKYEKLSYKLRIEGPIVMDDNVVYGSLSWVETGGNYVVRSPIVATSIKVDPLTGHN

With “2G12: neutralizing anti-HIV antibody, heavy chain SEQ ID No. 24, light chain SEQ ID No. 28”, in assay [1], the “antigen-binding activity of cleaved vs intact antibody (ELISA)” value is “severely reduced binding; also recorded: much lower antigen-binding activity”.

Turning to trypsin [reference compound], the “cleavage / degradation of 2F5 by purified protease” value (“cleavage / degradation of 2F5” below) in assay [2] is listed as “did not display cleavage activity; also recorded: cannot cleave”.

B1: SBT2: Nicotiana benthamiana subtilisin-like serine protease comprising SEQ ID No. 14 (protein, listed as Nicotiana benthamiana)
chain: MANHITLCIWLLFFFISIFSLAKSETYIIHMDLSAMPKAFSSHHNWYLTTLSSVSDSSTNHKDFLSSKLVYAYTNAIHGFSASLSPSELEAIKYSPGYVSSIKDISVKIDTTHTSQFLGLNSKSGVWPTSDYGKDIIIGLVDTGIWPESKSYSDDGISEVPSRWKGECESGTEFNSSLCNKKLIGARYFNKGLLANNPNLNISMNSSRDTDGHGTHTSSTAAGSYVEGASYFGYATGTAIGIAPKAHVAMYKALWEEGVYLSDVLAAIDQAITDGVDVLSLSLGIDAIPLHEDPVAIAAFAALEKGIFVSTSAGNEGPYYETLHNGTPWVLTVAAGTVDREFIGTLTLGNGVSVPGLSLYPGNSSSSESSLVYVECQDDKELQKNAHKFVVCLDKNDSVGEHVYNVRNSKVAGAVFITNTTDLEFYLQSEFPAVFLNLQEGDKVLEYIKSNSAPKGKLEFQVTHIGAKPAPKVATYSSRGPSPSCPSILKPDLMAPGALILASWPQQSPVTDVTSGKLFSNFNIISGTSMSCPHASGVAALLKAAHPEWSPAAIRSAMMTTSTALDNTQSPIRDIGNKNAAATPLAMGAGHIDPNKALDPGLIYDATPQDYVNLLCALNFTSKQIKTITRSSSYTCSNPSLDLNYPSFIGFFNGNSSESDPKRIQEFKRTVTNLQDGTSIYTANFTPMGKFKVSVVPEKLVFKEKYEKLSYKLRIEGPIVMDDNVVYGSLSWVETGGNYVVRSPIVATSIKVDPLTGHN
Turning to B1, in assay [3], the “cleavage sites in I19R 2G12 heavy chain (arrows)” value was “SD↓RL” and the “cleavage / degradation of I19R 2G12 by purified protease” value is “capable of acting on; also recorded: can cleave the heavy chains”. Also, the “cleavage / degradation of PG9 by purified protease” value in assay [4] is given as “capable of acting on; also recorded: can cleave the heavy chains”.

B2: SBT1: Nicotiana benthamiana subtilisin-like serine protease comprising SEQ ID No. 2 (protein, listed as Nicotiana benthamiana)
chain: MKGIISLFFCFSLFIVSFILREADSASQAQNNGIYIVYMGAAASSNGGTRHDQARLISSLIRRNKHAVVHSYNNGFSGFAARLSESEAKSMAQRPGVISVFPDPVLQLHTTHSWDFLKYQTDEKINSSPSSGSDSSLIGADTIIGILDTGIWPESESFNDKDMGPIPSRWNGTCMDGQDFGSSKCNKKIVGARFYEESDDSGTKIAGSARDENGHGTHVASTAAGSPVAGASYYGLAAGTATGGSPGSRISMYRVCTTFGCRGSAIMKAFDDAIADGVDVLSLSLGSSPGLEPDFPSNPIAIGAFHAVEKGITVVCSAGNSGPGPKTVVNTAPWILTVAATTIDRDFETDIVLGGNKLIKGGGINFGNMTKSSVYPLIHGNSTKSNDNVSEADARSCVPGSLDENKVKGKIVLCENLDDGEYFPSDKLDEVKSRGGVGFILIDDDERTVAPKFNSFSAGVVSKKDGNEILAYINSTRNPVASILPTVSITKYKPAPVVAYFSSRGPAYNTPNLLKPDITAPGVAILAAWPGNDTSEALPGQKPPIFNLLSGTSMSCPHVSGIAATVKAVNPTWSPSAVKSAIMTTAIQTNNLKAPITTVSGSKATPYDIGAGEASTSGPLKPGLVYETDVADYLQFLCSVGFNISQIKLISITVPEDFSCPKNSTSELVSNMNYPSIAISSLKENEPKKVTRTVTNTGEEASVYTTVIEAPKGLEVQVIPTKLEFTNKSKKLSYDVSFKASSTSKEDLFGSITWTNGKYKVRSPFVVSSN
As for B2, the “cleavage / degradation of 2F5” value in assay [2] is listed as “degrade; also recorded: can cleave the heavy chains”. In assay [3], the “cleavage sites in I19R 2G12 heavy chain (arrows)” value was “↓TV and TV↓VT”; the “cleavage / degradation of I19R 2G12 by purified protease” value is on record as “degrade; also recorded: can cleave the heavy chains”. Also, the “cleavage sites in PG9 heavy chain (arrows)” value in assay [4] (N-terminal sequencing and mass spectrometry) is “DGYYNYHYM↓[…]”. Further, the “cleavage / degradation of PG9 by purified protease” value in assay [4] is reported as “degrade; also recorded: can cleave the heavy chains”.

B3: S11: S. lycopersicum subtilisin propeptide-like inhibitor, SEQ ID No. 33, recombinant from E. coli (protein)
chain: MMKKDQILSSILLFFFLFTAFITTMADSQASSQPSNESKVHIVYTEQPKDQEPEEYHIKTLTSVLGSEEAAKEALLYSYKHAASGFSAKLTAEQVSELSKLPGVLQVVPSQTVQLHTGRV
modifications: Protease inhibitor
B3: the “binding affinity to / inhibition of SBT1” value in assay [5] was “high affinities”. For the same molecule, the “binding affinity to / inhibition of SBT2” value in assay [6] is reported as “high affinities”.

B4: SBT3: other serine protease (Cedzich A et al. 2009) (protein, UniProt O82777 113-761, looked up)
Subtilisin-like protease SBT3: TTHTSDFLKLNPSSGLWPASGLGQDVIVAVLDSGIWPESASFQDDGMPEIPKRWKGICKPGTQFNASMCNRKLIGANYFNKGILANDPTVNITMNSARDTDGHGTHCASITAGNFAKGVSHFGYAPGTARGVAPRARLAVYKFSFNEGTFTSDLIAAMDQAVADGVDMISISYGYRFIPLYEDAISIASFGAMMKGVLVSASAGNRGPGIGSLNNGSPWILCVASGHTDRTFAGTLTLGNGLKIRGWSLFPARAFVRDSPVIYNKTLSDCSSEELLSQVENPENTIVICDDNGDFSDQMRIITRARLKAAIFISEDPGVFRSATFPNPGVVVNKKEGKQVINYVKNSVTPTATITFQETYLDTKPAPVVAASSARGPSRSYLGISKPDILAPGVLILAAYPPNVFATSIGTNILLSTDYILESGTSMAAPHAAGIAAMLKAAHPEWSPSAIRSAMMTTADPLDNTRKPIKDSDNNKAATPLDMGAGHVDPNRALDPGLVYDATPQDYVNLLCSLNFTEEQFKTIARSSASHNCSNPSADLNYPSFIALYSIEGNFTLLEQKFKRTVTNVGKGAATYKAKLKAPKNSTISVSPQILVFKNKNEKQSYTLTIRYIGDEGQSRNVGSITWVEQNGNHSVRSPIVTSPIIEVW
Consider B4, for which the “cleavage / degradation of 2F5” value in assay [2] is given as “did not display cleavage activity; also recorded: cannot cleave”.
